Results: PMC4066749, “A sequence-based approach for prediction of CsrA/RsmA targets in bacteria with experimental validation in Pseudomonas aeruginosa”

How the values were obtained:
RsmA-R44A [1] = molecular target: T1, RsmA-R44A (UniProt O69078 1-61, R44A); test: analytical SEC; no significant interaction, RNA largely unbound; settings: protein: recombinant; chain copies: 2; unstructured
RsmA [2] = molecular target: T2, RsmA (UniProt O69078 1-61); test: analytical SEC; 50 uM protein, 25 uM RNA; settings: protein: recombinant; tags: His tag; chain copies: 2; unstructured
RsmA-R44A [3] = molecular target: T1, RsmA-R44A; test: analytical SEC; binding virtually eliminated; 50 uM protein, 25 uM RNA; 50 mM NaCl, 25 mM potassium phosphate pH 7.0; ITC at 298 K (125 uM RNA into 5-10 uM protein); SEC on Superdex 75 with 50 uM protein and 25 uM RNA, temperature not stated; settings: protein: recombinant; chain copies: 2; hairpin
RsmA [4] = molecular target: T2, RsmA; test: ITC; 298 K; 1:1 single-site fit; 50 mM NaCl, 25 mM potassium phosphate pH 7.0; ITC at 298 K (125 uM RNA into 5-10 uM protein); SEC on Superdex 75 with 50 uM protein and 25 uM RNA, temperature not stated; settings: protein: recombinant; tags: His tag; chain copies: 2; hairpin

| Binder | binding result (RsmA-R44A [1]) | binding result (RsmA [2]) | binding result (RsmA-R44A [3]) | Kd (RsmA [4]) |
| --- | --- | --- | --- | --- |
| GAAGAGGAGCUUUCAUG (ssRNA) [algU RBS RNA] | no binding | binds | – | – |
| CCCCGAAGGAUCGGGG (structured_RNA) [RsmZ-2 (RsmZ stem-loop 2)] | – | – | no binding | 276 ± 25 nM |
